From patent US5998583, “BH3 interacting domain death agonist” (Washington University, dated 1999)

Experiments:
[1] = molecular target: human BCL-2 (in FL5.12-Bcl-2 cells) (human, UniProt P10415); assay: In Vitro and In Vivo BCL-2 Binding (summary: GST pull-down and anti-BID immunoprecipitation with anti-BCL-2 blot)
[2] = molecular target: BAX (in FL5.12-Bcl-2 cells) (murine, UniProt Q07813); assay: In Vitro and In Vivo BAX Binding (summary: GST pull-down and anti-BID immunoprecipitation with anti-BAX blot)

| binding result [1] | binding result [2] | Binder |
| --- | --- | --- |
| no binding | – | BIDmIII-1 (M97A,D98A) (other) MDSEVSNGSGLGAKHITDLLVFGFLQSSGCTRQELEVLGRELPVQAYWEADLEDELQTDGSQASRSFNQGRIEPDSESQEEIIHNIARHLAQIGDEAAHNIQPTLVRQLAAQFMNGSLSEEDKRNCLAKALDEVKTAFPRDMENDKAMLIMTMLLAKKVASHAPSLLRDVFHTTVNFINQNLFSYVRNLVRNEMD |
| – | no binding | BIDmIII-3 (G94A) (other) MDSEVSNGSGLGAKHITDLLVFGFLQSSGCTRQELEVLGRELPVQAYWEADLEDELQTDGSQASRSFNQGRIEPDSESQEEIIHNIARHLAQIADEMDHNIQPTLVRQLAAQFMNGSLSEEDKRNCLAKALDEVKTAFPRDMENDKAMLIMTMLLAKKVASHAPSLLRDVFHTTVNFINQNLFSYVRNLVRNEMD |
